In patent US8106168B2, “Metalloproteinase binding proteins” (Dyax Corp., priority 2005, dated 2012):

B1: M0038-E06: human antibody (Fab, IgG) that binds and inhibits MMP-14; HC SEQ ID NO: 154, LC SEQ ID NO: 155 (antibody, V domains shown)
VH: EVQLLESGGGLVQPGGSLRLSCAASGFTFSPYVMHWVRQAPGKGLEWVSSISPSGGWTYYADSVKGRFTISRDNSKNTLYLQMNSLRAEDMAVYYCARGTGAYGMDVWGQGTTVTVSS
VL: QDIQMTQSPGTLSLSPGDRATLSCGASQLVVSNYIAWYQQKPGQAPRLLMYAGSIRATGIPDRFSGSGSGTDFTLTISRLEPEDFAIYYCQQRSNWPWTFGQGTKVEIK
modifications: Synthetically generated peptide
B2: M0031-C02: human antibody (Fab, IgG) that binds and inhibits MMP-14; HC SEQ ID NO: 144, LC SEQ ID NO: 145 (antibody, V domains shown)
VH: EVQLLESGGGLVQPGGSLRLSCAASGFTFSPYPMGWVRQAPGKGLEWVSSIVSSGGLTLYADSVKGRFTISRDNSKNTLYLQMNSLRAEDTAVYYCARGGRLYDILTGQGAPFDYWGQGTLVTVSS
VL: QDIQMTQSPLSLPVTPGEPASISCRSSQSLLHSNGYYYLDWYLQKPGQSPQLLIYLGSYRASGVPDRFSGSGSGTDFTLKISSVEAEDVGVYYCMQALQTPLTFGGGTRVDIK
modifications: Synthetically generated peptide
B3: M0032-B09: Fab that binds human MMP-14; DNA LV SEQ ID NO: 22, HV SEQ ID NO: 23 (antibody, V domains shown)
VH: EVQLLESGGGLVQPGGSLRLSCAASGFTFSIYKMVWVRQAPGKGLEWVSSIGSSGGHTRYADSVKGRFTISRDNSKNTLYLQMNSLRAEDTAVYYCARAPYYYYMDVWGKGTTVTVSS
VL: QDIQMTQSPSSVSASVGDTVTITCRASQGISTWLAWYQHKPGKAPKLLIYAGPSLQSGVPSRFSGSGSGTEFTLTISSLHPEDFATYYCQQLNHYPMTFGQGTRLEIK
modifications: Synthetically generated oligonucleotide
B4: M0040-A11: human antibody (Fab, IgG) that binds and inhibits MMP-14; HC SEQ ID NO: 164, LC SEQ ID NO: 165 (antibody, V domains shown)
VH: EVQLLESGGGLVQPGGSLRLSCAASGFTFSHYVMFWVRQAPGKGLEWVSRIVPSGGATMYADSVKGRFTISRDNSKNTLYLQMNSLRAEDTAVYYCARDRPLYDSSGYVDYWGQGTLVTVSS
VL: QSALTQPPSASGSPGQSVTISCTGTSSDVGAYNYVSWYQQHPDKAPKLIIYNVNERPSGVPDRFSGSKSGNTASLTVSGLQAEDEADYYCTSYAGSNKIGVSGTGTKVTVL
modifications: Synthetically generated peptide

How the values were obtained:
MMP-24 = MMP-24 (Homo sapiens, UniProt Q9Y5R2); assay: Cross-reactivity of Fabs with MMP-24 (Example 9); format: biochemical; design: key to MMP-24 (cross-reactivity, class symbol): X: Do not inhibit MMP-16 or MMP-24 at [I] = 100 nM level; Y: partially inhibit at [I] = 100 nM level; conditions: Fab, 100 nM final inhibitor concentration; 5 nM MMP-24
Sequence of MMP-24 (Q9Y5R2 156-645): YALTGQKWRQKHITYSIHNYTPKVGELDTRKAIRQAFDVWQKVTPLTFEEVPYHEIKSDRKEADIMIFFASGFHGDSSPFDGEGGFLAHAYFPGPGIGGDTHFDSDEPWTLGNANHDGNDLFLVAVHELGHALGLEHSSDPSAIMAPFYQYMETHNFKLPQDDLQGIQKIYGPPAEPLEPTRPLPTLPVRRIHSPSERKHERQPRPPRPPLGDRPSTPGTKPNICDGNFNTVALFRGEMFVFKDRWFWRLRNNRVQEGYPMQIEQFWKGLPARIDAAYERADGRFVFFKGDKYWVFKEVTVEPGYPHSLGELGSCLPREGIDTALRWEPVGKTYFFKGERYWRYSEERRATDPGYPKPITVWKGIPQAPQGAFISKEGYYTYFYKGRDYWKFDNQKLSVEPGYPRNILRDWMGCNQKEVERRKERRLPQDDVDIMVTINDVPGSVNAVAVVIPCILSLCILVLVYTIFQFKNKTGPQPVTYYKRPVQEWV
Procedure: (§1) For the studies summarized in Table 15, 1 μM of anti-MMP-14 Fab/IgG (100 nM final inhibitor concentration) were incubated with 5 nM of MMP-16 or 5 nM of MMP-24 for 30 minutes at 30° C., 10 μM of substrate was added, and the MMP-16 activity was measured.

MMP-16 [1] = molecular target: T1, MMP-16 (Homo sapiens, UniProt P51512); assay: Cross-reactivity of Fabs with MMP-16 (Example 9); format: biochemical; design: key: X: Do not inhibit MMP-16 or MMP-24 at [I] = 100 nM level; Y: partially inhibit at [I] = 100 nM level; conditions: Fab, 100 nM final inhibitor concentration, 5 nM MMP-16
T1 sequence (P51512 120-607): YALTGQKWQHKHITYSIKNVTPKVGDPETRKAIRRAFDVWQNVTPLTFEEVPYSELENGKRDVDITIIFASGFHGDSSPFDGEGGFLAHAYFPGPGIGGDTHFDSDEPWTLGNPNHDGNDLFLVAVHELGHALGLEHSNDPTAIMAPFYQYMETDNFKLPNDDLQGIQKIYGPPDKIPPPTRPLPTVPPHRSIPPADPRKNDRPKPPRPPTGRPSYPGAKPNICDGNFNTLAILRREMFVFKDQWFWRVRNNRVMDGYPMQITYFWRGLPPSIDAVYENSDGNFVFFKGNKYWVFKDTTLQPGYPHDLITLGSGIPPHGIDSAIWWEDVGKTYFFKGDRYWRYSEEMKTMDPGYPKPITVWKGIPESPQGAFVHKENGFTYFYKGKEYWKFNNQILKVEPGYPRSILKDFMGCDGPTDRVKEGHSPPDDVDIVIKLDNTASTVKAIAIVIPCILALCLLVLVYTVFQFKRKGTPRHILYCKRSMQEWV
Procedure: as §1

MMP-16 [2] = molecular target: T1, MMP-16; assay: Cross-reactivity of Fabs and IgGs with MMP-16 (Example 8); format: biochemical; design: key to MMP-16 (cross-reactivity, class symbol): X: Does not inhibit MMP-16 at [I] = 100 nM level; conditions: 5 nM MMP16, 30 minutes at 30° C., 10 μM substrate
Procedure: For the studies summarized in Tables 13 and 14, 100 nM anti-MMP-14 Fab/IgG were incubated with 5 nM MMP16 for 30 minutes at 30° C., 10 μM of substrate was added, and the MMP-16 activity was measured.

MMP-14 [3] = molecular target: T2, MMP-14 (Homo sapiens, UniProt P50281); assay: Selection and phage ELISA screening of anti-MMP-14 Fabs; format: binding; conditions: Fab from FAB310 phage display library
Procedure, shortened: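 The FAB310 phage library was panned on biotinylated MMP-14, alone or complexed with bead-bound TIMP-2, at 500 nM and then 100 nM over three rounds. Phage was eluted with 2.5 μM TIMP-2, then 100 mM TEA. For ELISA, 95 clones per round were screened against 1 μg/ml biotinylated MMP-14 captured on streptavidin in TRIS/5 mM CaCl2, pH 7.5.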

MMP-14 [4] = molecular target: T2, MMP-14; assay: IC50 for MMP-14 inhibition by Fabs and IgGs; format: biochemical; conditions: Fab
Procedure: MMP-14 binding proteins can be characterized in assays that measure their modulatory activity toward MMP-14 or fragments thereof in vitro or in vivo. For example, MMP-14 can be combined with a substrate such as Mca-Pro-Leu-Ala-Cys(Mob)-Trp-Ala-Arg-Dap(Dnp)-NH2 under assay conditions permitting cleavage by MMP-14. The assay is performed in the absence of the MMP-14 binding protein, and in the presence of increasing concentrations of the MMP-14 binding protein. The concentration of binding protein at which 50% of the MMP-14 activity (e.g., binding to the substrate) is inhibited is the IC50 value (Inhibitory Concentration 50%) or EC50 (Effective Concentration 50%) value for that binding protein.

MMP-24 (cross-reactivity, class symbol) (MMP-24)	MMP-16 (cross-reactivity, class symbol) (MMP-16 [1])	MMP-16 (cross-reactivity, class symbol) (MMP-16 [2]; Fab 100 nM)	MMP-16 (cross-reactivity, class symbol) (MMP-16 [2]; IgG 100 nM)	bind to human MMP-14 (MMP-14 [3])	bind to and inhibit human MMP-14 (MMP-14 [4])	MMP-24 inhibition (MMP-24)	Molecule
X	X	X	X	bind to human MMP-14	bind to and inhibit human MMP-14	–	B1
–	X	X	X	bind to human MMP-14	bind to and inhibit human MMP-14	Y 54% inhibition	B2
–	–	–	–	bind to human MMP-14	–	–	B3
–	X	X	X	bind to human MMP-14	bind to and inhibit human MMP-14	Y 58% inhibition	B4
